According to publication PMC7156504:
Residue numbers refer to the chain shown, from its start. Names may count otherwise. Blank lines part the entries; values can stand above or below the binder they belong to.

Experiments:
[1] = target: scFvWFL, single chain variant (scFv) of MEDI1912 (human); assay: cross-linking; scFv 15 µM in 100 mM sodium phosphate pH 7.4, d0/d4-BS3 (50:50) at 50x, 100x, 200x and 500x molar excess, 30 min at 25 °C; SDS-PAGE densitometry and LC-MS/MS of the dimer bands
[2] = target: scFvSTT, scFv of MEDI1912 with W35S, F36T and L64T in VH (human); assay: as above

- percent incorporated into higher-order oligomers [1]: 45%
B1: scFvWFL, single chain variant (scFv) of MEDI1912 (scFv, V domains shown)
VH: QVQLVQSGAEVKKPGSSVKVSCKASGGTFWFGAFTWVRQAPGQGLEWMGGIIPIFGLTNLAQNFQGRVTITADESTSTVYMELSSLRSEDTAVYYCARSSRIYDLNPSLTAYYDMDVWGQGTMVTVSS
VL: QSVLTQPPSVSAAPGQKVTISCSGSSSDIGNNYVSWYQQLPGTAPKLLIYDNNKRPSGIPDRFSGSKSGTSATLGITGLQTGDEADYYCGTWDSSLSAWVFGGGTKLTVL

- percent remaining monomeric [2]: 99%
B2: scFvSTT, scFv of MEDI1912 with W35S, F36T and L64T in VH (scFv, V domains shown)
VH: B1 VH with W30S, F31T, L57T
VL: B1 VL
